Assay results from article PMC12945441.

Target: prefusion SARS-CoV-2 Omicron BA.1 S ectodomain trimer (SARS-CoV-2 Omicron BA.1)
Experiment: cryo-EM structure

Question: “prefusion SARS-CoV-2 Omicron BA.1 S ectodomain trimer (domain or fragment)” was tested. Which stoichiometry N did it give?
Answer: 3
